From patent US20230036655A1 (OTSUKA PHARMACEUTICAL, published 2023)
Substitutions are numbered along the chain they refer to.

T1: human GDF15 (hGDF15), mature, wild-type (human, UniProt Q99988 197-308)
T1 construct: Bought recombinant protein: R&D Systems 957-GD-025/CF in most assays, 9279-GD in the crystal and the GDF15/GFRAL/RET assay; It was biotinylated in the GFRAL assay; also called hGDF15 (WT); rhGDF15
T1 sequence: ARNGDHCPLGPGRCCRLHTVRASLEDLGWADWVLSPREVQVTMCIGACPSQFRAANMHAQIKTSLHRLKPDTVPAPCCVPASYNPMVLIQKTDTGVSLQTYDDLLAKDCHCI

T2: mutant hGDF15 T72A (human, UniProt Q99988 197-308)
T2 construct: Expressed in ExpiCHO-S cells and used as culture supernatant in the ELISA
T2 chain: T1 sequence with T72A

T3: mutant hGDF15 8A (human, UniProt Q99988 197-308)
T3 construct: Expressed in ExpiCHO-S cells and used as culture supernatant
T3 chain: T1 sequence with P8A, L9A, G10A, P11A, G12A, R13A, R16A, L17A

T4: mutant hGDF15 R16A (human, UniProt Q99988 197-308)
T4 construct: Expressed in ExpiCHO-S cells and used as culture supernatant in the ELISA
T4 chain: T1 sequence with R16A

T5: mutant hGDF15 R13A (human, UniProt Q99988 197-308)
T5 construct: Expressed in ExpiCHO-S cells and used as culture supernatant in the ELISA
T5 chain: T1 sequence with R13A

T6: mutant hGDF15 3A (human, UniProt Q99988 197-308)
T6 construct: Expressed in ExpiCHO-S cells and used as culture supernatant
T6 chain: T1 sequence with G12A, R13A, R16A

T7: mutant hGDF15 H6A (human, UniProt Q99988 197-308)
T7 construct: Expressed in ExpiCHO-S cells and used as culture supernatant in the ELISA
T7 chain: T1 sequence with H6A

T8: mutant hGDF15 6A (human, UniProt Q99988 197-308)
T8 construct: Expressed in ExpiCHO-S cells and used as culture supernatant
T8 chain: T1 sequence with G10A, P11A, G12A, R13A, R16A, L17A

T9: mutant hGDF15 R13A, R16A (human, UniProt Q99988 197-308)
T9 construct: Expressed in ExpiCHO-S cells and used as culture supernatant in the ELISA
T9 chain: T1 sequence with R13A, R16A

T10: mutant hGDF15 4A (human, UniProt Q99988 197-308)
T10 construct: Expressed in ExpiCHO-S cells and used as culture supernatant
T10 chain: T1 sequence with G12A, R13A, R16A, L17A

T11: Peptide 2 (human, cysteine pairing not given here)
T11 construct: Synthesized by GenScript
T11 peptide: Ac-DHCPLGPGRCCRLH-NH2

T12: Peptide 1 (human, cysteine pairing not given here)
T12 construct: Synthesized by GenScript
T12 peptide: H-DHCPLGPGRCCRLH-OH

B1: HuMAB2 (antibody, human IgG1, kappa, V domains shown)
VH: QVQLQESGPGLVKPSETLSLTCTVSGFSINSDCYWIWIRQPPGKGLEYIGYTFYSGITYYNPSLASRTTISRDTSKNQFSLKLSSVTAADTAVYYCARDCDYAMDYWGQGTLVTVSS
VL: DIQMTQSPSSLSASVGDRVTITCRASQDISNYLNWYQQKPGKAVKLLIHYTSTLHSGVPSRFSGSGSGTDYTLTISSLQPEDFATYFCQQGNTLPWTFGQGTKLEIKR
notes: Humanized MAB2 joined to the constant region of bevacizumab; The printed copies of the L chain differ from each other; also called HuMAB2 antibody; H3delK/L7
B2: MAB17 (antibody, V domains shown)
VH: QVTLKESGPGILQPSQTLSLTCSFSGFSLNTHGMGVGWIRQPSGKGLEWLANIWWNDDKYYNSALKSRLTLSKDTSNNQVFLKISSVDTADTATYFCAQVAWDWFAYWGQGTLVTIS
VL: QIVLTQSPAIMSASLGEEITLTCSASSSVRYMHWYQQKSGTSPKVLIYSTSNLASGVPSRFSGSGSGTFYSLTISSVEAEDAADYYCHQWSSYPWTFGGGTKLEIKR
notes: Mouse monoclonal antibody from hybridoma; also called clone MAB17

Tests used:
[1] = target: T1, human GDF15 (hGDF15), mature, wild-type; assay: competition ELISA: GFRAL immobilised, biotinylated GDF15 plus serially diluted antibody; inhibition of GDF15-GFRAL complex formation (negative control)
mutant hGDF15 T72A = target: T2, mutant hGDF15 T72A; assay: sandwich ELISA: antibody immobilised, WT or mutant hGDF15, goat polyclonal detection; N=3, mean ± SD
mutant hGDF15 8A [2] = target: T3, mutant hGDF15 8A; assay: as above
mutant hGDF15 R16A = target: T4, mutant hGDF15 R16A; assay: as above
mutant hGDF15 R13A = target: T5, mutant hGDF15 R13A; assay: as above
mutant hGDF15 3A [3] = target: T6, mutant hGDF15 3A; assay: as above
mutant hGDF15 H6A = target: T7, mutant hGDF15 H6A; assay: as above
mutant hGDF15 6A [4] = target: T8, mutant hGDF15 6A; assay: as above
mutant hGDF15 R13A, R16A = target: T9, mutant hGDF15 R13A, R16A; assay: as above
mutant hGDF15 4A [5] = target: T10, mutant hGDF15 4A; assay: as above
[6] = target: T1, human GDF15 (hGDF15), mature, wild-type; assay: competition ELISA: GFRAL immobilised, biotinylated GDF15 plus serially diluted antibody; inhibition of GDF15-GFRAL complex formation
Description: First, the effect on GDF15 and GFRAL complex formation was examined (FIG. 12). GFRAL (R&D systems, 9697-GR) was immobilized on a plate, and GDF15 (R&D systems, 957-GD/CF) biotinylated with EZ-Link Micro NHS-PEG4-Bitinylation Kit (Thermo Fisher Scientific, 21955) and a serially diluted solution of an anti-GDF15 monoclonal antibody (Table 26) were reacted with the plate. Human IgG1, kappa-Isotype Control (Abcam) was used as a negative control antibody. GDF15 bound to GFRAL was detected using Pierce High Sensitivity Streptavidin-HRP (Thermo Fisher Scientific, 21130). TMB 1-Component Microwell Peroxidase Substrate, SureBlue (SeraCare Life Sciences) was used for color development, and the reaction was stopped by adding a stop solution (Wako). Absorbance was measured at 450 nm (OD450) using Emax (Molecular Devices). The % of control value was calculated according to Equation-1 from the OD450 value when each antibody was added, with the OD450 value when no antibody was added as a control. The IC50 value was obtained by calculating the inhibition rate from the % of control value thus obtained according to Equation-2 and using an Excel macro for IC50 calculation.

[7] = target: T1, human GDF15 (hGDF15), mature, wild-type; assay: sandwich ELISA: antibody immobilised, WT or mutant hGDF15, goat polyclonal detection; N=3, mean ± SD (reference)
mutant hGDF15 8A [8] = target: T3, mutant hGDF15 8A; assay: sandwich ELISA, HuMAB2 immobilised, mutant hGDF15, goat polyclonal detection (relative value -0.1)
mutant hGDF15 3A [9] = target: T6, mutant hGDF15 3A; assay: sandwich ELISA, HuMAB2 immobilised, mutant hGDF15, goat polyclonal detection (relative value 0.4)
Peptide 2 = target: T11, Peptide 2; assay: ELISA, peptide immobilised, anti-human IgG-HRP detection
Protocol: (§1) Peptide 1 was unmodified at both ends, and Peptide 2 was synthesized by acetylating the amino terminus and amidating the carboxyl terminus for the purpose of mimicking the natural state because this region is an internal region within hGDF15. HuMAB2 antibody (10 μg/mL) was added at 100 μL/well to a 96-well plate on which a 10 μg/mL peptide solution had been added at 100 μL/well and the peptide had been immobilized, and thereby reacted with the peptide (25° C. for 3 hours). The bound HuMAB2 antibody was detected by adding a 5000-fold diluted anti-human IgG-HRP (Jackson ImmunoResearch, 109-035-008) at 100 μL/well and reacted at 25° C. for 1 hour. A plate on which hGDF15 (R&D Systems, 957-GD-025/CF) was immobilized was used as a control plate. The detection antibody in Human GDF15 ELISA Kit (R&D Systems, DY957) (Table 9) was used as a positive control antibody that reacts with the peptide, and Human IgG1 Isotype control (Abcam, ab206198) was used as a negative control antibody.

Peptide 1 = target: T12, Peptide 1; assay: as above
Protocol: as §1

mutant hGDF15 6A [10] = target: T8, mutant hGDF15 6A; assay: sandwich ELISA, HuMAB2 immobilised, mutant hGDF15, goat polyclonal detection (relative value 0.0)
mutant hGDF15 4A [11] = target: T10, mutant hGDF15 4A; assay: as above
[12] = target: T1, human GDF15 (hGDF15), mature, wild-type; assay: competition (sandwich) ELISA: clone immobilised, hGDF15 captured; competitor: biotinylated HuMAB2
Protocol: HuMAB2 and the anti-GDF15 monoclonal antibodies shown in Table 5 (2 μg/mL) were added to 96-well plates at 100 μL/well to be immobilized on the plates, and reacted with 100 μL/well of hGDF15 (R&D Systems, 957-GD-025/CF) serially diluted from a concentration of 1 ng/ml. HuMAB2 biotinylated using EZ-Link Micro NHS-PEG4-Bitinylation Kit (Thermo Fisher Scientific, 21955) was used as the detection antibody (1 μg/mL as 100 μL/well). Whether or not sandwich ELISA was established was determined using Streptavidin-HRP conjugate in Human GDF15 ELISA Kit (R&D Systems, DY957). The detection antibody in Human GDF15 ELISA Kit (R&D Systems, DY957) (Table 5), which can establish sandwich ELISA with any monoclonal antibody, was used as a positive control antibody (PC) for sandwich ELISA.
Then, other antibodies obtained this time were tested to see whether each of these antibodies competes with HuMAB2 by the same method as described above.

Molecule	relative binding (amount bound to 500 pg/mL hGDF15 = 100) (relative value (WT hGDF15 = 100)) (mutant hGDF15 R13A, R16A)	IC50 [6] [nM]	relative binding (amount bound to 500 pg/mL hGDF15 = 100) (mutant hGDF15 T72A)	relative binding (amount bound to 500 pg/mL hGDF15 = 100) (mutant hGDF15 8A [2])	relative binding (amount bound to 500 pg/mL hGDF15 = 100) (mutant hGDF15 R16A)	relative binding (amount bound to 500 pg/mL hGDF15 = 100) (mutant hGDF15 R13A)	relative binding (amount bound to 500 pg/mL hGDF15 = 100) (mutant hGDF15 3A [3])	relative binding (amount bound to 500 pg/mL hGDF15 = 100) (mutant hGDF15 H6A)	relative binding (amount bound to 500 pg/mL hGDF15 = 100) (mutant hGDF15 6A [4])	relative binding (amount bound to 500 pg/mL hGDF15 = 100) (mutant hGDF15 4A [5])	other results
Human IgG1 Isotype control (antibody)	–	–	–	–	–	–	–	–	–	–	IC50 [1]: > 500 nM
MAB957 (antibody)	80.6	11.1	–	–	–	–	–	–	–	–	relative binding (amount bound to 500 pg/mL hGDF15 = 100) (relative value (WT hGDF15 = 100)) (mutant hGDF15 T72A): 101; relative binding (amount bound to 500 pg/mL hGDF15 = 100) (relative value (WT hGDF15 = 100)) (mutant hGDF15 8A [2]): 69.2; relative binding (amount bound to 500 pg/mL hGDF15 = 100) (relative value (WT hGDF15 = 100)) (mutant hGDF15 R16A): 93.9; relative binding (amount bound to 500 pg/mL hGDF15 = 100) (relative value (WT hGDF15 = 100)) (mutant hGDF15 R13A): 89.9; relative binding (amount bound to 500 pg/mL hGDF15 = 100) (relative value (WT hGDF15 = 100)) (mutant hGDF15 3A [3]): 99; relative binding (amount bound to 500 pg/mL hGDF15 = 100) (relative value (WT hGDF15 = 100)) (mutant hGDF15 H6A): 88.3; relative binding (amount bound to 500 pg/mL hGDF15 = 100) (relative value (WT hGDF15 = 100)) (mutant hGDF15 6A [4]): 74.3; relative binding (amount bound to 500 pg/mL hGDF15 = 100) (relative value (WT hGDF15 = 100)) (mutant hGDF15 4A [5]): 84.1; relative binding (amount bound to 500 pg/mL hGDF15 = 100) (relative value (WT hGDF15 = 100)) [7]: 100
B1	4.9	> 500	101 relative value (WT hGDF15 = 100)	-0.1 relative value (WT hGDF15 = 100)	24 relative value (WT hGDF15 = 100)	17.8 relative value (WT hGDF15 = 100)	0.4 relative value (WT hGDF15 = 100)	136 relative value (WT hGDF15 = 100)	0 relative value (WT hGDF15 = 100)	0 relative value (WT hGDF15 = 100)	binding result (mutant hGDF15 8A [8]): no binding; binding result (mutant hGDF15 3A [9]): no binding; binding result (Peptide 2): no binding (tested: 10 µg/mL); binding result (Peptide 1): no binding (tested: 10 µg/mL); binding result (mutant hGDF15 6A [10]): no binding; binding result (mutant hGDF15 4A [11]): no binding
B2	–	12	104 relative value (WT hGDF15 = 100)	78.8 relative value (WT hGDF15 = 100)	101 relative value (WT hGDF15 = 100)	97.2 relative value (WT hGDF15 = 100)	110 relative value (WT hGDF15 = 100)	87.7 relative value (WT hGDF15 = 100)	83.9 relative value (WT hGDF15 = 100)	95 relative value (WT hGDF15 = 100)	Inhibition % [12]: 0%; relative binding (amount bound to 500 pg/mL hGDF15 = 100) (mutant hGDF15 R13A, R16A): 83 relative value (WT hGDF15 = 100)
